Assays:
[1] = molecular target: SARS-CoV-2 S Trimer (SARS-CoV-2), P0DTC2; assay: SPR; conditions: remark: other sources report otherwise
[2] = molecular target: SARS-CoV-2 S1-Fc (South Africa 178-08) (SARS-CoV-2), P0DTC2; assay: SPR; conditions: remark: other sources report otherwise

B1: 6-63 (Fc fusion)
chain: EVQLVESGGGLVQPGGSLRLSCAASGQTFNMGWFRQAPGKEREFVAAIGSGGSTSYADSVKGRFTISADNSKNTAYLQMNSLKPEDTAVYYCWRLGNDYFDYWGQGTLVTVSS
- Kd [1]: 0.68 nM
- Kd [2]: 26.8 nM

From patent US20230002478A1
